Data reported in PMC5526573, “Bacillus sp. JR3 esterase LipJ: A new mesophilic enzyme showing traces of a thermophilic past” (PLoS ONE, 2017).

System: CCCC(=O)Oc1ccc([N+](=O)[O-])cc1
Assay: purified protein
Conditions: 37 °C, semi-purified His-tagged enzyme, methods state optimal assay conditions (pH 7)

## LipJ (Bacillus sp. (in: firmicutes))
  Km: 1700 µM
